Key:
[1] = target: T1, Human TNFR2-His (Sino 10417-H08H) (human, UniProt P20333 23-257); experiment: ELISA, human TNFR2-His coated; EC50 against 219-WT
T1 construct: Bought protein; also called recombinant human TNFR2 protein; not shown: His tag
T1 sequence (looked up): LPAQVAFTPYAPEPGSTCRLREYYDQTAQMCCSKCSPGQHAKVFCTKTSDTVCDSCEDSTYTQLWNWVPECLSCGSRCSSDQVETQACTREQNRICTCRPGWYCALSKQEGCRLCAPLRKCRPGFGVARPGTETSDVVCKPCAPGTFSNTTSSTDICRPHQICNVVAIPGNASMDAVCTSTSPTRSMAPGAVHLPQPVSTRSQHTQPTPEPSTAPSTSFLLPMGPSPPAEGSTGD
Description: (§1) The test humanized antibody against TNFR2 (as described in Example 1, the antibody was comprised of variable regions linked to IgG-Fc; the WT chimeric antibody also adopted the IgG-Fc structure) was subjected to 3.33-fold gradient dilution, loaded with 100 μl/well, and incubated with shaking at room temperature for 1.5 hours. The plate was washed, and then a working solution of murine anti-human IgG Fc-HRP (diluted at 1:10000) was added, loaded with 100 μl/well, and incubated with shaking at room temperature for 1.0 hour. The plate was washed again, and then the substrate TMB of HRP was added to develop colour. A stop solution was added to stop the reaction, and then a microplate reader (MD 13) was used to read the absorbance value. The binding curve of an antibody was drawn with antibody concentration as the abscissa and corresponding OD value as the ordinate, and fitted with four parameters (GraphPad Prism9) to calculate the EC50 value. The smaller the EC50 value, the stronger the binding ability of an antibody to human/cynomolgus monkey TNFR2. The binding effect of a humanized antibody was normalized to its corresponding human-murine chimeric antibody WT (see SEQ ID NOs: 38-43 for the sequence). The higher the percentage value, the better the binding effect of the humanized antibody. The results of binding of an anti-TNFR2 antibody to a human TNFR2 protein are shown in FIG. 1 and Table 4, and the results of binding of an anti-TNFR2 antibody to cynomolgus monkey TNFR2 are shown in FIG. 2 and Table 4.

[2] = target: T2, human TNFR2 on the surface of CHO-TNFR2 cells (human, UniProt P20333 23-461); experiment: competition flow cytometry on CHO-TNFR2 cells, competitor TNFα-biotin; AUC against 219-WT
T2 construct: whole, on cells
T2 sequence (looked up): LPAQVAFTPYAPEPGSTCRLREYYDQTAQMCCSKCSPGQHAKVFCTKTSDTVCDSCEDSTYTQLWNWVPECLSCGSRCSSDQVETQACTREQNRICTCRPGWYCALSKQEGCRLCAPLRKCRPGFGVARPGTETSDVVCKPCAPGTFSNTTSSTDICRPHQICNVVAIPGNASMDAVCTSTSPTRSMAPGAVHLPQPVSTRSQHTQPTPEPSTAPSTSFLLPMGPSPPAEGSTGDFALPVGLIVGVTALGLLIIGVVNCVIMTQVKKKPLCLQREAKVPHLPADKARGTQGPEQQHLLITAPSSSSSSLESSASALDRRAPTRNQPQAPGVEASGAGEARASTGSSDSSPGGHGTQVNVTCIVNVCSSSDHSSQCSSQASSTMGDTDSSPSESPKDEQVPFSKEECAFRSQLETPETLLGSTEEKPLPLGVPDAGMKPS
Description: CHO stable cells highly expressing human TNFR2 were used for the experiment (the same as CHO-TNFR2 in Example 4). The CHO-TNFR2 cells were digested, washed twice with DPBS, then stained with Live/Dead (L/D) (20 minutes at room temperature), and plated at a density of 1×10⁵ cells/50 μl/well. A test anti-TNFR2 antibody was diluted to 6 μg/ml with a staining buffer as the starting concentration: the antibody was subjected to 3.33-fold gradient dilution, with a total of 7 concentration points. The diluted antibody was added to the plated cells at 50 μl/well, and the mixture was mixed well by gentle pipetting, and incubated at 4° C. for 30 minutes. Then the diluted 100 ng/ml of human TNFα-biotin was added at 100 μl/well, and the mixture was mixed well by gentle pipetting, and then incubated at 4° C. for 30 minutes. The mixture was washed twice with a staining buffer, and then 0.12 μg/ml PE-streptavidin (BioLegend, Cat #405204) was added at 100 μl/well; the resulting mixture was incubated at 4° C. for 30 minutes. The mixture was washed twice with a staining buffer, and then 150 μl of staining buffer was added to resuspend the cells; signals were detected by a flow cytometer (Thermo Attune NxT). The inhibitory curve of an antibody was drawn with antibody concentration as the abscissa and corresponding MFI value as the ordinate, and fitted with four parameters (GraphPad Prism9) to calculate the IC50 value. The smaller the IC50 value, the stronger the ability of an antibody to inhibit the binding of human TNFα to human TNFR2. The blocking effect of a humanized antibody was normalized to its corresponding human-murine chimeric WT antibody. The higher the percentage value, the better the inhibitory effect of the humanized antibody.

[3] = target: T3, Cynomolgus TNFR2-His (Sino 90102-C08H) (cynomolgus monkey, UniProt A0A2K5VET2 132-366); experiment: ELISA, cynomolgus TNFR2-His coated; EC50 against 219-WT
T3 construct: Bought protein; also called cynomolgus monkey TNFR2; recombinant cynomolgus monkey TNFR2 protein; not shown: His tag
T3 sequence: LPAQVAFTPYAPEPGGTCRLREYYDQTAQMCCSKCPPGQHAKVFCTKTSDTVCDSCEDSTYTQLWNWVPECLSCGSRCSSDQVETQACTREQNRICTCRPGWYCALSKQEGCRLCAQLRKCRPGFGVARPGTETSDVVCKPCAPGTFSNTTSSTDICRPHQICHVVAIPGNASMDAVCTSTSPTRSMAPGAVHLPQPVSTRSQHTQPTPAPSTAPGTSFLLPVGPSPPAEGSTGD
Description: as §1

[4] = target: T3, Cynomolgus TNFR2-His (Sino 90102-C08H); experiment: ELISA, cynomolgus TNFR2-His coated; EC50 against 001-WT
Description: as §1

[5] = target: T1, Human TNFR2-His (Sino 10417-H08H); experiment: ELISA, human TNFR2-His coated; EC50 against 001-WT
Description: as §1

Binder | % Relative activity (WT antibody/test antibody) [1] [%] | % Relative activity (WT antibody/test antibody) [2] [%] | % Relative activity (WT antibody/test antibody) [3] [%] | % Relative activity (WT antibody/test antibody) [4] [%] | % Relative activity (WT antibody/test antibody) [5] [%]
219-Hu3 (antibody, V domains shown, also called VH5 + VL5) VH: QVQLVQSGAEVKKPGSSVKVSCKASGYSFTNYWMNWVRQAPGQGLEWMGMIHPSDTETRLNQNFKDRVTITADKSTSTAYMELSSLRSEDTAVYYCARGEGLGAARSVSMDYWGQGTLVTVSS VL: DIQMTQSPSSLSASVGDRVTITCRASQDISNYLNWYQQKPDGTVKLLIYYTAILHSGVPSRFSGSGSGTDYSLTISSLQPEDFATYFCQQGNTLPWTFGQGTKVEIK | 84.4 | 98.5 | 90.4 | – | –
219-Hu1 (antibody, V domains shown, also called VH3 + VL5) VH: QVQLVQSGAEVKKPGASVKVSCKASGYSFTNYWMNWVRQAPGQRLEWMGMIHPSDTETRLNQNFKDRVTITRDTSASTAYMELSSLRSEDTAVYYCARGEGLGAARSVSMDYWGQGTLVTVSS VL: DIQMTQSPSSLSASVGDRVTITCRASQDISNYLNWYQQKPDGTVKLLIYYTAILHSGVPSRFSGSGSGTDYSLTISSLQPEDFATYFCQQGNTLPWTFGQGTKVEIK | 83.1 | 102 | 77.5 | – | –
219-Hu4 (antibody, V domains shown, also called VH6 + VL5) VH: QVQLVQSGAEVKKPGSSVKVSCKASGYSFTNYWMNWVKQAPGQGLEWIGMIHPSDTETRLNQNFKDKATLTVDKSTSTAYMELSSLRSEDTAVYYCARGEGLGAARSVSMDYWGQGTLVTVSS VL: DIQMTQSPSSLSASVGDRVTITCRASQDISNYLNWYQQKPDGTVKLLIYYTAILHSGVPSRFSGSGSGTDYSLTISSLQPEDFATYFCQQGNTLPWTFGQGTKVEIK | 99.7 | 108 | 93.1 | – | –
219-Hu5 (antibody, V domains shown, also called VH7 + VL5) VH: QVQLVQSGAEVKKPGSSVKVSCKASGYSFTNYWMNWVRQAPGQGLEWMGMIHPSDTETRLNQNFKDRVTITVDKSTSTAYMELSSLRSEDTAVYYCARGEGLGAARSVSMDYWGQGTLVTVSS VL: DIQMTQSPSSLSASVGDRVTITCRASQDISNYLNWYQQKPDGTVKLLIYYTAILHSGVPSRFSGSGSGTDYSLTISSLQPEDFATYFCQQGNTLPWTFGQGTKVEIK | 96.5 | 109 | 93.4 | – | –
219-Hu2 (antibody, V domains shown, also called VH4 + VL5) VH: QVQLVQSGAEVKKPGSSVKVSCKASGYSFTNYWMNWVRQAPGQGLEWMGMIHPSDTETRLNQNFKDKATITADKSTSTAYMELSSLRSEDTAVYYCARGEGLGAARSVSMDYWGQGTLVTVSS VL: DIQMTQSPSSLSASVGDRVTITCRASQDISNYLNWYQQKPDGTVKLLIYYTAILHSGVPSRFSGSGSGTDYSLTISSLQPEDFATYFCQQGNTLPWTFGQGTKVEIK | 95.9 | 102 | 102 | – | –
001-Hu5 (antibody, V domains shown, Humanized form of #001; also called VH1 + VL4) VH: EVQLVESGGGLVQPGGSLRLSCAASGFAFSTYDLSWVRQAPGKGLEWVAYINNGGISTYYSDTVKGRFTISRDNAKNTLYLQMNSLRAEDTAVYYCVRGPFYGSANYFDYWGQGTLVTVSS VL: DIQMTQSPSSLSASVGDRVTITCRTSESIYSNLPWYQQKPGKSPKLLVYDATKLAEGVPSRFSGSGSGTDYTLTISSLQPEDFATYYCQHFWVTPWTFGQGTKVEIK | – | – | – | 105 | 100
001-Hu3 (antibody, V domains shown, Humanized form of #001; also called VH1 + VL3) VH: EVQLVESGGGLVQPGGSLRLSCAASGFAFSTYDLSWVRQAPGKGLEWVAYINNGGISTYYSDTVKGRFTISRDNAKNTLYLQMNSLRAEDTAVYYCVRGPFYGSANYFDYWGQGTLVTVSS VL: DIQMTQSPSSLSASVGDRVTITCRTSESIYSNLPWYQQKPGKAPKLLIYDATKLAEGVPSRFSGSGSGTDYTLTISSLQPEDFATYYCQHFWVTPWTFGQGTKVEIK | – | – | – | 105 | 101
001-Hu2 (antibody, V domains shown, Humanized form of #001; also called VH2 + VL2) VH: EVQLVESGGGLVQPGGSLRLSCAASGFAFSTYDLSWVRQAPGKGLEWVAYINNGGISTYYSDTVKGRFTISRDNAKNSLYLQMNSLRAEDTAVYYCVRGPFYGSANYFDYWGQGTLVTVSS VL: DIQMTQSPSSLSASVGDRVTITCRTSESIYSNLPWYQQKPGKSPKLLIYDATKLAEGVPSRFSGSGSGTDFTLTISSLQPEDFATYYCQHFWVTPWTFGQGTKVEIK | – | – | – | 107 | 102
001-Hu1 (antibody, V domains shown, Humanized form of #001; also called VH1 + VL1) VH: EVQLVESGGGLVQPGGSLRLSCAASGFAFSTYDLSWVRQAPGKGLEWVAYINNGGISTYYSDTVKGRFTISRDNAKNTLYLQMNSLRAEDTAVYYCVRGPFYGSANYFDYWGQGTLVTVSS VL: DIQMTQSPSSLSASVGDRVTITCRTSESIYSNLPWYQQKPGKAPKLLLYDATKLAEGVPSRFSGSGSGTDYTLTISSLQPEDFATYYCQHFWVTPWTFGQGTKVEIK | – | – | – | 108 | 104
001-Hu4 (antibody, V domains shown, Humanized form of #001; also called VH2 + VL4) VH: EVQLVESGGGLVQPGGSLRLSCAASGFAFSTYDLSWVRQAPGKGLEWVAYINNGGISTYYSDTVKGRFTISRDNAKNSLYLQMNSLRAEDTAVYYCVRGPFYGSANYFDYWGQGTLVTVSS VL: DIQMTQSPSSLSASVGDRVTITCRTSESIYSNLPWYQQKPGKSPKLLVYDATKLAEGVPSRFSGSGSGTDYTLTISSLQPEDFATYYCQHFWVTPWTFGQGTKVEIK | – | – | – | 106 | 109

Reference: patent US20240109974A1 (SHANDONG SIMCERE BIOPHARMACEUTICAL, published 2024)
